Experimental data published in patent publication US11110171B2, “PD-1 related cancer therapy” (New York University, priority 2017, dated 2021).

Target: T1, SHP2 binding to GST-PD1 (Homo sapiens, UniProt Q06124)
T1 construct: endogenous in cells; host or cells: SAP-knockdown Jurkat T cells (SHP2); GST-PD-1 tail made in BL21 E. coli
T1 sequence (Q06124 2-593 limits assumed): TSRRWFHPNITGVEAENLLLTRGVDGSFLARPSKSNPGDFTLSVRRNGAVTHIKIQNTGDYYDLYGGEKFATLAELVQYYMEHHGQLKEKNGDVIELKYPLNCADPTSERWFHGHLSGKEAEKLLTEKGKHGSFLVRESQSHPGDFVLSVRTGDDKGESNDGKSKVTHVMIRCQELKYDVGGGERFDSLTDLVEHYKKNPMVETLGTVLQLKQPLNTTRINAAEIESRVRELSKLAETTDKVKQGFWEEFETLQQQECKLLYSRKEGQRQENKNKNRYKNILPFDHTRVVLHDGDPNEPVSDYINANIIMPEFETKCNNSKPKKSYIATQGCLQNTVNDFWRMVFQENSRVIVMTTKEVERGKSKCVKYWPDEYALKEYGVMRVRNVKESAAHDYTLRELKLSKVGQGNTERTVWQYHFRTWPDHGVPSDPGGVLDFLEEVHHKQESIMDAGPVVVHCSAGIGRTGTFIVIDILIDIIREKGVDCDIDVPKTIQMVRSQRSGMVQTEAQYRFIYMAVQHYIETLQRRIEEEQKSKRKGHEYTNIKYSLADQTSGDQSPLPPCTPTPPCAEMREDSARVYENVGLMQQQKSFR
T1 sequence (Q15116 192-288 partner limits assumed): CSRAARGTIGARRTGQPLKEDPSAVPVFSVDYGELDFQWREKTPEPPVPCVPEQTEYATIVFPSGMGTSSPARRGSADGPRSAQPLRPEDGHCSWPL
Assay: Affinity purification of SHP2 by GST-PD1 with increasing concentrations of recombinant SAP
Details: increasing concentrations of recombinant SAP added to SAP KD Jurkat cell lysate
Protocol: FIG. 3. SAP is indirectly associated with PD-1. (ai) Pervanadate treated Jurkat T cells were transiently transfected with GFP-tagged PD-1 or GFP alone; Whole cell lysates (WCL) were immunoprecipitated with an anti-GFP antibody (IP: GFP), and samples were analyzed by immunoblotting. (aii) Densitometry values of data shown in ai. (b) Jurkat T cells were transfected with plasmids directing expression of the indicated fluorescent proteins and after 24 hours cells were stimulated with anti-CD3 antibodies and recombinant PDL2, followed by live-imaging. Bar, 10 μm. […] (di) Jurkat T cells were transfected with different versions of GFP-tagged PD-1, as indicated, followed by treatment with pervanadate; Whole-cell lysates (Input) were immunoprecipitated with an anti-GFP antibody (IP: GFP), and samples were analyzed by immunoblotting. […] (ei) 293T cells were transfected with plasmid directing expression of GFP-SAP or a control GFP plasmid, followed by treatment with pervanadate; Lysates were pulled-down with the GST-tagged PD-1 and samples were analyzed by immunoblotting. […] (gi) SHP2 KD and scrambled control Jurkat T cells were transfected with GFP-tagged PD-1, followed by treatment with pervanadate; Lysates were immunoprecipitated with an anti-GFP antibody (IP: GFP), and samples were analyzed by immunoblotting. […] Samples were analyzed by immunoblot. […]

B1: SAP: Recombinant human SAP (His tagged), signaling lymphocytic activation molecule-associated protein, purchased from Abcam (protein, UniProt O60880 1-128, looked up)
SH2 domain-containing protein …: MDAVAVYHGKISRETGEKLLLATGLDGSYLLRDSESVPGVYCLCVLYHGYIYTYRVSQTETGSWSAETAPGVHKRYFRKIKNLISAFQKPDQGIVIPLQYPVEKKSSARSTQGTTGIREDPDVCLKAP
modifications: His tag
interference with the affinity-purification of SHP2 by GST-PD1: did not interfere
